Measured values taken from the supplement of paper PMC7877785.
± gives the uncertainty stated by the source.

Assay: self-splicing fitness, log relative to wild type (ln ratio); higher = more splicing; Tetrahymena group I intron in knt gene, E. coli kanamycin selection, DiMSum; sequences stand for … in CUCUCU…GGAGGGAAAAGUUAUCAGGCAUGCACCUGGUAGCUAGUCUUUAAACCAAUAGAUUGCAUCGGUUUAAAAGGCAAGACCGUCAAAUUGCGGGAAAGGGGUCAACAGCCGUUCAGUACCAAGUCUCAGGGGAAACUUUGAGAUGGCCUUGCAAAGGGUAUGGUAAUAAGCUGACGGACAUGGUCCUAACCACGCAGCCAAGUCCUAAGUCAACAGAUCUUCUGUUGAUAUGGAUGCAGUUCACAGACUAAAUGUCGGUCGGGGAAGAUGUAUUCUUCUCAUAAGAUAUAGUCGGACCUCUCCUUAAUGGGAGCUAGCGGAUGAAGUGAUGCAACACUGGAGCCGCUGGGAACUAAUUUGUAUGCGAAAGUAUAUUGAUUAGUUUUGGAGUACUCGUGGUCG
Summary of the method: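 DiMSum derived fitness as the error-weighted combination of fold changes across replicates, kanamycin versus no kanamycin, normalised to wild type. E. coli BL21(DE3) held the library, which randomised all eight P1ex-region intron nucleotides within the knt kanamycin-resistance gene on pET-22b(+). Six replicate transformations grew overnight at 37°C or 30°C on LB agar with or without 25 μg/mL kanamycin, also containing 100 μg/mL carbenicillin, 50 μM IPTG and 0.2% rhamnose, and pooled colonies were amplicon-sequenced on an Illumina HiSeq 2500.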

Sequence	self-splicing fitness (ln) (30 °C)	self-splicing fitness (ln) (37 °C)
AUUAAGCAAUAUUACGAAAG	-1.89 ± 0.15	-1.23 ± 0.16
CUGCAGCAAUAUUACGACAG	-2.43 ± 0.13	-1.56 ± 0.18
CUCGAGCAAUAUUACGUAUC	-4.31 ± 0.3	-2.78 ± 0.29
CCUCAGCAAUAUUACGUAGG	-2.71 ± 0.18	-2.38 ± 0.3
CGCGAGCAAUAUUACGGUAG	-1.19 ± 0.12	-0.901 ± 0.13
UCCAAGCAAUAUUACGAUGA	-0.0226 ± 0.05	0.466 ± 0.071
CGAUAGCAAUAUUACGGAUU	-2.89 ± 0.11	-2.61 ± 0.2
GAAAAGCAAUAUUACGAAUC	-2.99 ± 0.21	-1.04 ± 0.18
UGAAAGCAAUAUUACGACUC	-2.17 ± 0.2	-1.88 ± 0.25
GGAUAGCAAUAUUACGACCC	-0.96 ± 0.23	
UAUCAGCAAUAUUACGCCUG	-0.368 ± 0.1	-0.425 ± 0.1
GUCCAGCAAUAUUACGACAU	-0.524 ± 0.012	0.0313 ± 0.032
GGGCAGCAAUAUUACGUUCC	-2.68 ± 0.23	-2.58 ± 0.37
CCAUAGCAAUAUUACGCUGG	-3.54 ± 0.19	-2.58 ± 0.2
CCGGAGCAAUAUUACGGUAG	-2.71 ± 0.14	-2.75 ± 0.21
GUGGAGCAAUAUUACGUAUA	-2.7 ± 0.2	
UAUCAGCAAUAUUACGGUAA	-0.552 ± 0.13	-0.308 ± 0.11
AUGAAGCAAUAUUACGUGCG	-0.65 ± 0.08	0.532 ± 0.11
UAAGAGCAAUAUUACGAUCA	-2.23 ± 0.29	-0.554 ± 0.19
AGAUAGCAAUAUUACGACGA	-0.422 ± 0.095	-0.749 ± 0.085
CGUCAGCAAUAUUACGAGCU	-3.17 ± 0.13	-1.45 ± 0.13
UUGCAGCAAUAUUACGCGCU	-1.88 ± 0.18	-0.656 ± 0.19
AGGAAGCAAUAUUACGGAAA	-2.92 ± 0.23	-2.26 ± 0.18
AGGAAGCAAUAUUACGCUAU	-3.03 ± 0.21	-2.35 ± 0.2
GGUAAGCAAUAUUACGGACG	0.0239 ± 0.12	0.484 ± 0.15
AACUAGCAAUAUUACGUAGU	-2.24 ± 0.084	-1.39 ± 0.12

Sequence	self-splicing fitness (ln) (30 °C)	self-splicing fitness (ln) (37 °C)
CGCCAGCAAUAUUACGAAGU	-3.65 ± 0.16	-2.13 ± 0.11
AUCGAGCAAUAUUACGGUUU	-2.08 ± 0.091	-1.71 ± 0.099
AAAAAGCAAUAUUACGUGUC	-3.44 ± 0.17	-1.79 ± 0.17
UAGCAGCAAUAUUACGAUCA	0.112 ± 0.088	0.169 ± 0.099
UUCAAGCAAUAUUACGGCUU	-2.58 ± 0.14	-1.16 ± 0.14
AAAAAGCAAUAUUACGCCUA	-0.792 ± 0.12	-0.855 ± 0.094
CCGGAGCAAUAUUACGGAGA	-3.99 ± 0.39	-2.24 ± 0.25
UAACAGCAAUAUUACGCGCU	-1.93 ± 0.096	-0.612 ± 0.11
CCUUAGCAAUAUUACGGCUC	-3.72 ± 0.21	-3.45 ± 0.39
UCUUAGCAAUAUUACGGCUU	-3.65 ± 0.41	-2.63 ± 0.48
GCAUAGCAAUAUUACGUCUU	-1.46 ± 0.1	-0.342 ± 0.11
ACCAAGCAAUAUUACGGAGA	-3.16 ± 0.15	-1.66 ± 0.11
UGGAAGCAAUAUUACGCCAU	-3.64 ± 0.28	-2.07 ± 0.36
CCAUAGCAAUAUUACGUAAA	-4.17 ± 0.2	-3.03 ± 0.32
UAGGAGCAAUAUUACGGCUU	-4.37 ± 0.28	-3.13 ± 0.4
ACUCAGCAAUAUUACGUCGA	-3.15 ± 0.25	-1.94 ± 0.18
UACGAGCAAUAUUACGACAG	-2.49 ± 0.21	-0.615 ± 0.2
AGAUAGCAAUAUUACGUGCU	-1.39 ± 0.1	-0.664 ± 0.12
CAGGAGCAAUAUUACGGAAA	-2.58 ± 0.14	-2.59 ± 0.23
CUGUAGCAAUAUUACGUUGU	-3.59 ± 0.25	-4.02 ± 0.33
GAAGAGCAAUAUUACGGCAU	-1.96 ± 0.12	-1.99 ± 0.17
CGUUAGCAAUAUUACGUCAU	-2.58 ± 0.21	-2.85 ± 0.3
CCCCAGCAAUAUUACGGGUC	-2.82 ± 0.11	-2.43 ± 0.16
GUAAAGCAAUAUUACGAGCG	-0.0732 ± 0.09	0.212 ± 0.12
AAUCAGCAAUAUUACGGCAC	-0.508 ± 0.086	-0.24 ± 0.12
AAGCAGCAAUAUUACGGUCG	-1.34 ± 0.061	-0.879 ± 0.093

Sequence	self-splicing fitness (ln) (30 °C)	self-splicing fitness (ln) (37 °C)
GGUUAGCAAUAUUACGGGGC		-2.66 ± 0.4
UGGCAGCAAUAUUACGCUAU	-3.89 ± 0.25	-1.8 ± 0.2
GUGCAGCAAUAUUACGGCAC	-0.83 ± 0.2	-1.46 ± 0.24
ACUAAGCAAUAUUACGGACG	-0.961 ± 0.087	-0.106 ± 0.14
CUCGAGCAAUAUUACGCAUA	-2.34 ± 0.26	
UACUAGCAAUAUUACGGAAC	-3.78 ± 0.34	-3.03 ± 0.32
AGUAAGCAAUAUUACGAUUG	-2.97 ± 0.29	-2.54 ± 0.29
CAACAGCAAUAUUACGAAGU		-1.78 ± 0.16
AAUUAGCAAUAUUACGGUUC	-3.38 ± 0.22	-2.65 ± 0.26
UAUAAGCAAUAUUACGCUUC	-3.58 ± 0.38	
CAUGAGCAAUAUUACGCGUU	-4.13 ± 0.42	-2.35 ± 0.26
ACCCAGCAAUAUUACGACAA	-1.66 ± 0.1	-1.09 ± 0.1
UAUCAGCAAUAUUACGUGCA	-0.589 ± 0.054	0.447 ± 0.078
CAUCAGCAAUAUUACGCUUC	-2.2 ± 0.18	-0.251 ± 0.12
CUCUAGCAAUAUUACGAAAU	-3.13 ± 0.21	-3.18 ± 0.27
AAAUAGCAAUAUUACGACGU	0.194 ± 0.083	-0.646 ± 0.074
GUAGAGCAAUAUUACGCAGG	-1.51 ± 0.15	-1.59 ± 0.15
UGCCAGCAAUAUUACGGAUG	-1.21 ± 0.093	-0.248 ± 0.12
GUAGAGCAAUAUUACGCUGG	-1.56 ± 0.17	-1.53 ± 0.24
CGAAAGCAAUAUUACGCCUA	-2.47 ± 0.24	-0.736 ± 0.14
UAACAGCAAUAUUACGACGC	-2.37 ± 0.12	-1.76 ± 0.16
UGUCAGCAAUAUUACGGGCA	-2.75 ± 0.21	-1.78 ± 0.27
CGAUAGCAAUAUUACGGCGC	-1.21 ± 0.15	-0.875 ± 0.26
AAGAAGCAAUAUUACGGUCC	-1.1 ± 0.14	0.249 ± 0.16
AAUUAGCAAUAUUACGUGUA	-2.21 ± 0.15	-1.41 ± 0.12
UGUAAGCAAUAUUACGUUUC	-3.11 ± 0.22	-3.02 ± 0.43
